Assays:
[1] = target: T1, human CLDN6 (human, UniProt P56747 1-220); experiment: cell-based or functional assay
T1 sequence: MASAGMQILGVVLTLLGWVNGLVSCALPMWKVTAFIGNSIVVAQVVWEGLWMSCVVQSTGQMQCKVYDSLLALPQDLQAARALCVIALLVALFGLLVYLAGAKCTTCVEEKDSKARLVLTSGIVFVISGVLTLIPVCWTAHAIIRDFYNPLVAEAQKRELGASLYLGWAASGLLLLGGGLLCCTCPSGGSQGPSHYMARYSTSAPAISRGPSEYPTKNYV

[2] = target: T1, human CLDN6; experiment: cell-based or functional assay; remark: listed apart in the source
[3] = target: T1, human CLDN6; experiment: cell-based or functional assay; remark: listed apart in the source
[4] = target: T2, hCLDN6(Q156L) (human, UniProt P56747 1-220); experiment: FACS on Ba/F3 transfectant, antibody 20 micro g/ml, FITC anti-human IgG
T2 construct: Stably expressed on Ba/F3 cells; also called human CLDN6 mutant; BaF3_hCLDN6(Q156L)
T2 chain: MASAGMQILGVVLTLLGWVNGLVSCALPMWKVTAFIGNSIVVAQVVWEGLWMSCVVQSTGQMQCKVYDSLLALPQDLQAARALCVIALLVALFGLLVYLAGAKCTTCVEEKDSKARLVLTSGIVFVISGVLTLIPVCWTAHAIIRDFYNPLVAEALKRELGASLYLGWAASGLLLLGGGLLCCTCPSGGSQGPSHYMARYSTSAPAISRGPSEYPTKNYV

[5] = target: T3, mouse CLDN3 (mouse, UniProt Q9Z0G9 1-219); experiment: as above
T3 construct: whole, on cells; also called mCLDN3; BaF3_mCLDN3
T3 sequence (looked up): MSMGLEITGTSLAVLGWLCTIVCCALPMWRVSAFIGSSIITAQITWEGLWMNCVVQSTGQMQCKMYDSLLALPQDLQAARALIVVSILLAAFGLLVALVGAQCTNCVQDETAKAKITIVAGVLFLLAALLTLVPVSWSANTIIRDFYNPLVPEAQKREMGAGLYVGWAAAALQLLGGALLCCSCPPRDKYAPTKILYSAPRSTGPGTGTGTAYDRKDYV

[6] = target: T4, mouse CLDN6 (mouse, UniProt Q9Z262 1-219); experiment: as above
T4 construct: whole, on cells; also called mCLDN6; BaF3_mCLDN6
T4 sequence (looked up): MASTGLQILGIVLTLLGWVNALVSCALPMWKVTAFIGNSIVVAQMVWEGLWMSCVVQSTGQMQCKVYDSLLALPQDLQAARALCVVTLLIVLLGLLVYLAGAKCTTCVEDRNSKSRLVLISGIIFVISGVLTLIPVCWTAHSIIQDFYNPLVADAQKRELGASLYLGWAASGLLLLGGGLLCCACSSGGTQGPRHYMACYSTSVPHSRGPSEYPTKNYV

[7] = target: T5, human CLDN4 (human, UniProt O14493 1-209); experiment: as above
T5 construct: whole, on cells; also called hCLDN4; BaF3_hCLDN4
T5 sequence (looked up): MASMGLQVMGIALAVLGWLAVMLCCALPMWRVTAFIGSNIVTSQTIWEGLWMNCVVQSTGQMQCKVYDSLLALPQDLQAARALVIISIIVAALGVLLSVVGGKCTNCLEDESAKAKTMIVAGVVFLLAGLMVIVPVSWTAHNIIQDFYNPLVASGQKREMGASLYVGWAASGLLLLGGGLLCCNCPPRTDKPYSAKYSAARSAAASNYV

B1: CH04/CD3 (bispecific antibody, human IgG1, kappa, N297A)
heavy 1: EVQLQQSGPELVKPGASMKISCKASGYSFTGYTMNWVKQSHGKNLEWIGLINPYNGGTIYNQKFKGKATLTVDKSSSTAYMELLSLTSEDSAVYYCARDYGFVLDYWGQGTTLTVSSASTKGPSVFPLAPSSKSTSGGTAALGCLVKDYFPEPVTVSWNSGALTSGVHTFPAVLQSSGLYSLSSVVTVPSSSLGTQTYICNVNHKPSNTKVDKKVEPKSCDKTHTCPPCPAPELRGGPKVFLFPPKPKDTLMISRTPEVTCVVVDVSHEDPEVKFNWYVDGVEVHNAKTKPREEQYASTYRVVSVLTVLHQDWLNGKEYKCKVSNKALPAPIEKTISKAKGQPREPQVYTLPPSREEMTKNQVSLTCLVKGFYPSDIAVEWESNGQPENNYKTTPPYLDSDGSFFLYSKLTVDKSRWQQGNVFSCSVMHEALHNHYTQESLSLSP
light 1: DIVLTQSPSIMSVSPGEKVTITCSASSSVSYMHWFQQKPGTSPKLCIYSTSNLASGVPARFSGRGSGTSYSLTISRVAAEDAATYYCQQRSNYPPWTFGGGTKLEIKRTVAAPSVFIFPPSDEQLKSGTASVVCLLNNFYPREAKVQWKVDNALQSGNSQESVTEQDSKDSTYSLSSTLTLSKADYEKHKVYACEVTHQGLSSPVTKSFNRGEC
heavy 2: QVQLVESGGGVVQPGGSLRLSCAASGFTFSNAWMHWVRQAPGKGLEWVAQIKDKSQNYATYVAESVKGRFTISRADSKNSIYLQMNSLKTEDTAVYYCRYVHYAAGYGVDIWGQGTTVTVSSASTKGPSVFPLAPSSKSTSGGTAALGCLVKDYFPEPVTVSWNSGALTSGVHTFPAVLQSSGLYSLSSVVTVPSSSLGTQTYICNVNHKPSNTKVDKKVEPKSCDKTHTCPPCPAPELRGGPKVFLFPPKPKDTLMISRTPEVTCVVVDVSHEDPEVKFNWYVDGVEVHNAKTKPREEQYASTYRVVSVLTVLHQDWLNGKEYKCKVSNKALPAPIEKTISKAKGQPREPQVYTLPPSRKEMTKNQVSLTCLVKGFYPSDIAVEWESNGQPENNYKTTPPYLDSDGSFFLYSKLTVDKSRWQQGNVFSCSVMHEALHNHYTQKSLSLSP
light 2: DIVMTQSPLSLPVTPGEPASISCRSSQPLVHSNRNTYLHWYQQKPGQAPRLLIYKVSNRFSGVPDRFSGSGSGTDFTLKISRVEAEDVGVYYCGQGTQVPYTFGQGTKLEIKRTVAAPSVFIFPPSDEQLKSGTASVVCLLNNFYPREAKVQWKVDNALQSGNSQESVTEQDSKDSTYSLSSTLTLSKADYEKHKVYACEVTHQGLSSPVTKSFNRGEC
notes: Made by Fab arm exchange of the bivalent anti-CLDN6 antibody CH04 with the bivalent anti-CD3 antibody CD3-1; human IgG1 constant region; One anti-CLDN6 arm and one anti-CD3 arm; also called CLDN6-TRAB; CLDN6-targeted T-cell redirecting bispecific antibody
Question: How did the “EC50 (read off the curve), Jurkat/NFAT-RE luciferase reporter, target cells ABC-1” value [1] turn out when B1 was run?
Answer: The value was ~0.06 nM.

Question: What about the “EC50 (read off the curve), Jurkat/NFAT-RE luciferase reporter, target cells PA-1” value [2] of the same binder?
Answer: The value was ~0.04 nM.

Question: What about the “EC50 (read off the curve), Jurkat/NFAT-RE luciferase reporter, target cells HuH-7” value [3] of the same binder?
Answer: Its value is ~0.08 nM.

Question: And the “Geo-mean value of FACS” value [4]?
Answer: The value was 80.

Question: And the “Geo-mean value of FACS” value [5]?
Answer: The value was 27.

Question: What about the “Geo-mean value of FACS” value [6] of the same binder?
Answer: Its value is 1790.

Question: What about the “Geo-mean value of FACS” value [7] of the same binder?
Answer: The value was 34.

Source: patent US20210054076A1 (Chugai, published 2021)
